{"source": "paper PMC1636418", "experiment_in_all_cases": "EMSA", "key": {"ZαβADAR1": {"target": "T1, ZαβADAR1 (Homo sapiens, UniProt P55265 133-368)", "T1 sequence": "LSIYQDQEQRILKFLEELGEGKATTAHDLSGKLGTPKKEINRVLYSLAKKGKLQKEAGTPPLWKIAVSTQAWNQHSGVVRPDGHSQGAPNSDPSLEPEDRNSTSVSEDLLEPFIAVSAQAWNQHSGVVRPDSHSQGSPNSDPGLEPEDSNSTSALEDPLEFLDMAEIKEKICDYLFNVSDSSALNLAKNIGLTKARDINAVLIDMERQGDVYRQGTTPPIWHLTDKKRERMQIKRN"}, "ZαβZBP1 N46D/Y50A": {"target": "T2, ZαβZBP1 N46D/Y50A (Homo sapiens, UniProt Q9H171 4-167, N46D;Y50A)", "T2 sequence": "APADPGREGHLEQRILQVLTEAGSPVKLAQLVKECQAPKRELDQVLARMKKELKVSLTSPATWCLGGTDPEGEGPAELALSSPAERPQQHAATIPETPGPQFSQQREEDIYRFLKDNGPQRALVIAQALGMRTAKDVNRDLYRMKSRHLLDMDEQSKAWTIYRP"}, "[1]": {"target": "T3, ZαβZBP1 N46D/Y50A/N141D/Y145A (Homo sapiens, UniProt Q9H171 4-167, N46D;Y50A;N141D;Y145A)", "T3 sequence": "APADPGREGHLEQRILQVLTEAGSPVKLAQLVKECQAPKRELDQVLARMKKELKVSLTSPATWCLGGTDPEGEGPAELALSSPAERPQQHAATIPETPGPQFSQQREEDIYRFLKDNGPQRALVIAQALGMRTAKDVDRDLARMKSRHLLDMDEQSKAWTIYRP"}, "ZαβZBP1 N46D": {"target": "T4, ZαβZBP1 N46D (Homo sapiens, UniProt Q9H171 4-167, N46D)", "T4 sequence": "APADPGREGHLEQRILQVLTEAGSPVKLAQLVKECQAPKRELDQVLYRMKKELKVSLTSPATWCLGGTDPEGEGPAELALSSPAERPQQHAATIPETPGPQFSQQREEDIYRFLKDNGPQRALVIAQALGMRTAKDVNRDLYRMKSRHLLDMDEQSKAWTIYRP"}, "ZαβZBP1 Y50A": {"target": "T5, ZαβZBP1 Y50A (Homo sapiens, UniProt Q9H171 4-167, Y50A)", "T5 sequence": "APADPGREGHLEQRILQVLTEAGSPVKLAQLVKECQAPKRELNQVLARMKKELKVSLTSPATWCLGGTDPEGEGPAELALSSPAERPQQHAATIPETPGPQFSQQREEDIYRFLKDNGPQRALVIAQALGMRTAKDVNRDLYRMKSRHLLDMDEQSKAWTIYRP"}, "ZαβZBP1 N141D/Y145A": {"target": "T6, ZαβZBP1 N141D/Y145A (Homo sapiens, UniProt Q9H171 4-167, N141D;Y145A)", "T6 sequence": "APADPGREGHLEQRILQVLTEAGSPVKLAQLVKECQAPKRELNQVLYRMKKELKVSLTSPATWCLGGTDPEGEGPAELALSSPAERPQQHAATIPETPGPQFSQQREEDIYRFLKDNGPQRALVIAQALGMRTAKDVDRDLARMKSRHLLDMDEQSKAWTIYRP"}, "ZβZBP1": {"target": "T7, ZβZBP1 (Homo sapiens, UniProt Q9H171 4-10+87-167, internal_change)", "T7 sequence": "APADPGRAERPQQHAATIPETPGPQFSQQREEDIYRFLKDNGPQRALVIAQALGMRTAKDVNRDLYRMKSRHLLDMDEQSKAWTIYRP"}, "ZαZBP1": {"target": "T8, ZαZBP1 (Homo sapiens, UniProt Q9H171 4-86)", "T8 sequence": "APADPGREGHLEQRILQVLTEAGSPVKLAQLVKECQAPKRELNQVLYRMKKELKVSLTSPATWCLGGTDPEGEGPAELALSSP"}, "ZαβZBP1": {"target": "T9, ZαβZBP1 (Homo sapiens, UniProt Q9H171 4-167)", "T9 sequence": "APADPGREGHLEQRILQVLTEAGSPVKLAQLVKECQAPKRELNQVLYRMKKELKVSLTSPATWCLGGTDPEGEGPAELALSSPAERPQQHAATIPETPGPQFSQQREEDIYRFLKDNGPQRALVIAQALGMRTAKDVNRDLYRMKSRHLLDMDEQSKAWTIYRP"}}}
{"binder": "(dC-dG)20 (dsDNA) DNA 1: CGCGCGCGCGCGCGCGCGCGCGCGCGCGCGCGCGCGCGCG DNA 2: CGCGCGCGCGCGCGCGCGCGCGCGCGCGCGCGCGCGCGCG", "values": [{"measurement": "binding result", "setting": "ZαβADAR1", "result": "binds"}, {"measurement": "binding result", "setting": "ZαβZBP1 N46D/Y50A", "result": "no binding"}, {"measurement": "binding result", "setting": "[1]", "result": "no binding"}, {"measurement": "binding result", "setting": "ZαβZBP1 N46D", "result": "no binding"}, {"measurement": "binding result", "setting": "ZαβZBP1 Y50A", "result": "no binding"}, {"measurement": "binding result", "setting": "ZαβZBP1 N141D/Y145A", "result": "no binding"}, {"measurement": "binding result", "setting": "ZβZBP1", "result": "binds"}, {"measurement": "binding result", "setting": "ZαZBP1", "result": "binds"}, {"measurement": "binding result", "setting": "ZαβZBP1", "result": "binds"}]}
